Assay results as given in publication PMC3128695, “A Lower-Order Oligomer Form of Phage Shock Protein A (PspA) Stably Associates with the Hexameric AAA^+ Transcription Activator Protein PspF for Negative Regulation” (Journal of Molecular Biology, 2009).

Target: the molecule itself
Assay: SEC; single proteins alone: 50-μl samples of 30 μM PspAFL or PspA fragments (20 μM PspF1–275), Superose 6, 4 °C, 20 mM Tris–HCl pH 8.0, 50 mM NaCl, 15 mM MgCl2; apparent oligomeric forms from calibration with globular proteins

Row | Protein | stoichiometry N [subunits]
1 | His-PspA(1–110) (HD1–HD2) (domain or fragment) not shown | 2
2 | His-PspA(68–186) (HD2–HD3) (domain or fragment) not shown | 6
3 | His-PspA(68–110) (HD2) (domain or fragment, PspA, E. coli, residues 68-110 (HD2); Cloned NdeI-BamHI into pET28b+, which should give an N-terminal His tag as for the other fragments (surmised); a start codon was added by the forward primer; source: pET28b+-based plasmid pGJ52) not shown | 2
4 | His-PspA(68–222) (HD2–HD3–HD4) (domain or fragment) not shown | 6
